From paper PMC12154632

Experiments:
[1] = target: paused elongation complex PEC-225 (E. coli RNAP stalled at U225 of the Bsu-GTR template) (E. coli); assay: single-molecule fluorescence colocalisation
[2] = target: paused elongation complex PEC-161 (E. coli RNAP stalled at C161 of the Bsu-GTR template) (E. coli); assay: single-molecule fluorescence colocalisation

paused elongation complex PEC-225 (E. coli RNAP stalled at U225 of the Bsu-GTR template) (E. coli), sequence (A1AGI6 whole entry, chain 1 of 4): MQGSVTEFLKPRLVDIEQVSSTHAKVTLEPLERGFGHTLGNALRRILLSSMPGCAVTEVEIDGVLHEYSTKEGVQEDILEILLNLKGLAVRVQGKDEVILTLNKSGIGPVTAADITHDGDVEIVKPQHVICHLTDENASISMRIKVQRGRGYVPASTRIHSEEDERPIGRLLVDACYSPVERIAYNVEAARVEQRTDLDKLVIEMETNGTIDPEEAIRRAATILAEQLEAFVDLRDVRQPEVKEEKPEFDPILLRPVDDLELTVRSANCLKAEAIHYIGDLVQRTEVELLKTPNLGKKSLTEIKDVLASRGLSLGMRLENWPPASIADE
paused elongation complex PEC-225 (E. coli RNAP stalled at U225 of the Bsu-GTR template) (E. coli), sequence (A1AIF9 whole entry, chain 2 of 4, further chain): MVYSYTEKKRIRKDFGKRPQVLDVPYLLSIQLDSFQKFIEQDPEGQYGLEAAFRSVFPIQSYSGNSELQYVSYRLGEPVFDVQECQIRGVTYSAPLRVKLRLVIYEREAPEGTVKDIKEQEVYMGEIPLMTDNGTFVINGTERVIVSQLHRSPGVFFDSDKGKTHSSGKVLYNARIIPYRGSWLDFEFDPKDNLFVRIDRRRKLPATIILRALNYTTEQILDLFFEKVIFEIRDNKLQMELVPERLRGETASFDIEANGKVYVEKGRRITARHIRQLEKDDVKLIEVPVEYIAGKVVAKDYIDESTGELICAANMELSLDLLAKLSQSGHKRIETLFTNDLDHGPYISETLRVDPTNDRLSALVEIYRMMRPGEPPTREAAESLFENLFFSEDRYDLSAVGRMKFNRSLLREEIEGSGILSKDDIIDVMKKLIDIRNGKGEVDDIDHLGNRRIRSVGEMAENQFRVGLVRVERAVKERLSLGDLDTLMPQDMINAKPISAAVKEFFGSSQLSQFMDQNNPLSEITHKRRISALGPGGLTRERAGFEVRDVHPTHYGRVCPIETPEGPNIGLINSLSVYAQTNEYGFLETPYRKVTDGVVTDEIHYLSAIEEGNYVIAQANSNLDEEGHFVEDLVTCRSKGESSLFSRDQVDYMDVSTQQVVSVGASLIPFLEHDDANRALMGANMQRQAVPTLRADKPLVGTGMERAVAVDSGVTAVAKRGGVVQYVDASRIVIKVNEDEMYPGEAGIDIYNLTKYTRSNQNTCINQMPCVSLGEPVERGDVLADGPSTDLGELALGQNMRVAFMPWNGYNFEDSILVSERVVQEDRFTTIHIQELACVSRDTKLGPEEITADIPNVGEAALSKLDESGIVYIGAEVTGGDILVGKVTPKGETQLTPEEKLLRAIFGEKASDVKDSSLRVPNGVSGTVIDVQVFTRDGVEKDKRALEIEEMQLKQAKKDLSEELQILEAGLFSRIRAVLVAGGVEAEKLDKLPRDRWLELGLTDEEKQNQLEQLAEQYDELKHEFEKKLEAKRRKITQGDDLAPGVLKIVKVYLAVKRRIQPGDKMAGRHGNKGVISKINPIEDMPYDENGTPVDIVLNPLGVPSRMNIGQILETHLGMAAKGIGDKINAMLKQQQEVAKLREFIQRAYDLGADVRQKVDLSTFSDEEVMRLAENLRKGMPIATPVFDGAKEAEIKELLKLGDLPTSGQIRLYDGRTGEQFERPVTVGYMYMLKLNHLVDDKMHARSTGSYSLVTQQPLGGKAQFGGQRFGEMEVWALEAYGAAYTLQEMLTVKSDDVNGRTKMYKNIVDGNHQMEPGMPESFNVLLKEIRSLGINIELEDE
paused elongation complex PEC-225 (E. coli RNAP stalled at U225 of the Bsu-GTR template) (E. coli), sequence (A7ZUK2 whole entry, chain 3 of 4, further chain): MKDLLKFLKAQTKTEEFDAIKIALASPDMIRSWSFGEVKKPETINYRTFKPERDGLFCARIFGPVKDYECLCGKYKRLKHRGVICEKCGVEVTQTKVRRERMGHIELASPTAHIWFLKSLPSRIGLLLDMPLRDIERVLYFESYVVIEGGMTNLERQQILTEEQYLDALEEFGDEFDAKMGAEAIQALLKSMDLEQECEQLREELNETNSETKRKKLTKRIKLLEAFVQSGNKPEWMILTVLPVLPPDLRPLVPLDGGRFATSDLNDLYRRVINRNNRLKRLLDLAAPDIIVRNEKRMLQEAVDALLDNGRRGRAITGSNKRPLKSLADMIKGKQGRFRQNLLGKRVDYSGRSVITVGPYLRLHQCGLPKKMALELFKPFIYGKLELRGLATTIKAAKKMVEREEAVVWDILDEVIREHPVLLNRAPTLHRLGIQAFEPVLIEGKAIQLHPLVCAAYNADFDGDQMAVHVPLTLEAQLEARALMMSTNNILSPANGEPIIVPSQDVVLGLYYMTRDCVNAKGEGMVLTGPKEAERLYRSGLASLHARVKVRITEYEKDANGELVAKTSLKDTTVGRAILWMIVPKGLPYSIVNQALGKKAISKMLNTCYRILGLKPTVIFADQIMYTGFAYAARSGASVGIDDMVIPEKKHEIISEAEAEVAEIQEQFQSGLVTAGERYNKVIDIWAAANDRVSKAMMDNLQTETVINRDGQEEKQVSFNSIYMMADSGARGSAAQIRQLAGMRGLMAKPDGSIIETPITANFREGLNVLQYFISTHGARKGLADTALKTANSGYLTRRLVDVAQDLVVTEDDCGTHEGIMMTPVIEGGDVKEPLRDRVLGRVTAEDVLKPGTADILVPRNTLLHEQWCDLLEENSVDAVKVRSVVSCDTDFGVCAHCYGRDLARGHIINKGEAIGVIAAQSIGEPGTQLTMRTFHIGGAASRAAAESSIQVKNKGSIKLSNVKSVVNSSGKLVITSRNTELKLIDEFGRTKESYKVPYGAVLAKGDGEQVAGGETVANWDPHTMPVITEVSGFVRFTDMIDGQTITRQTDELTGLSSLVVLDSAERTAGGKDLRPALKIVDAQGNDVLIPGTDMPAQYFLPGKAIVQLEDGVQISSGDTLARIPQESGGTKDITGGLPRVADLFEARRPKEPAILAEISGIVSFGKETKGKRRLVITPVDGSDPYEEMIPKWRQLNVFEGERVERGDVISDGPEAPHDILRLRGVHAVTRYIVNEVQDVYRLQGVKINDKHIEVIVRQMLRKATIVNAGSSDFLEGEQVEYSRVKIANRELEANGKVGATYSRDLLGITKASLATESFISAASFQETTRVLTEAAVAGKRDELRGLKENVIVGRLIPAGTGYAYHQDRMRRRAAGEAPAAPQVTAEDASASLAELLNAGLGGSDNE
paused elongation complex PEC-225 (E. coli RNAP stalled at U225 of the Bsu-GTR template) (E. coli), sequence (A1AHI0 2-91 limits assumed, chain 4 of 4, further chain): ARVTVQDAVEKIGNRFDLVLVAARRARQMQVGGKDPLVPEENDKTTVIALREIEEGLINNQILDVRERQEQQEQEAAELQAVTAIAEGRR

koff [1]: 0.47 s⁻¹ | kon [1]: 4.16e+06 M⁻¹ s⁻¹ | kon, fast (fraction 50%) [1]: 7.26e+06 M⁻¹ s⁻¹ | kon, slow (fraction 50%) [1]: 1.38e+06 M⁻¹ s⁻¹ | koff [2]: 0.81 s⁻¹ | kon [2]: 1.12e+07 M⁻¹ s⁻¹ | kon, fast (fraction 45%) [2]: 2.34e+07 M⁻¹ s⁻¹ | kon, slow (fraction 55%) [2]: 2.29e+06 M⁻¹ s⁻¹
Substance: NusA-Cy5 (from UniProt P0AFF6 1-495) (natural protein)
